Test results reported in paper doi:10.1101/2025.03.24.644901.

Target: MBP-SCC1 (aa 100-320) with C-terminal tetracysteine motif, FlAsH-labelled (human) (UniProt O60216)
Assay: fluorescence polarisation

Chain of MBP-SCC1 (aa 100-320) with C-terminal tetracysteine motif, FlAsH-labelled (human) (O60216 100-320): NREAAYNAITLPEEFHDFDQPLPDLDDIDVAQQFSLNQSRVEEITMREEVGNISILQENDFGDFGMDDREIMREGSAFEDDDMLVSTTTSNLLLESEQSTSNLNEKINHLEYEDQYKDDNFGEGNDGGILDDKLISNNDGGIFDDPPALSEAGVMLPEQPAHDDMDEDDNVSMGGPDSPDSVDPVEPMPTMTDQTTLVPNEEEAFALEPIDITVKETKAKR

fold lower Kd than for SCC1^350–550: 3 fold
Substance: inactive apo-separase (separase^C2029S), Q14674 1-2120
